T1: DnaD DDBH2 domain (residues 129–232) of Bacillus subtilis DnaD (Bacillus subtilis, UniProt P39787 129-232)
T1 construct: DnaD, Bacillus subtilis, DDBH2 domain, residues 129-232; A residual N-terminal Gly-Ser-His remains after thrombin cleavage; 15N-labelled in the reverse titration; also called C-terminal DDBH2 domain; not shown: His tag, N-terminal, cleaved
T1 sequence (looked up): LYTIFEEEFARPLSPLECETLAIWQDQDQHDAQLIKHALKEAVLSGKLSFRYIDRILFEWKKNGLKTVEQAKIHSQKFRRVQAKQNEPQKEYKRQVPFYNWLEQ

B1: DnaD, full length, Bacillus subtilis (natural protein)
chain: MKKQQFIDMQEQGTSTIPNLLLTHYKQLGLNETELILLLKIKMHLEKGSYFPTPNQLQEGMSISVEECTNRLRMFIQKGFLFIEECEDQNGIKFEKYSLQPLWGKLYEYIQLAQNQTQERKAEGEQKSLYTIFEEEFARPLSPLECETLAIWQDQDQHDAQLIKHALKEAVLSGKLSFRYIDRILFEWKKNGLKTVEQAKIHSQKFRRVQAKQNEPQKEYKRQVPFYNWLEQ
B2: Truncated DnaD DDBH2 domain (residues 129–196) (domain or fragment, Bacillus subtilis, UniProt P39787 129-196, looked up)
chain: LYTIFEEEFARPLSPLECETLAIWQDQDQHDAQLIKHALKEAVLSGKLSFRYIDRILFEWKKNGLKTV
notes: DnaD, Bacillus subtilis, DDBH2 domain truncated at the C-terminus, residues 129-196; Made from the DDBH2 (129-232) construct by Q5 site directed mutagenesis; A residual N-terminal Gly-Ser-His remains after thrombin cleavage; also called DnaD DDBH2 domain truncation; truncated DDBH2; not shown: His tag, N-terminal, cleaved
B3: DnaA(N191C/A198C) (natural protein, Bacillus subtilis, UniProt P05648 1-446, looked up)
chain: MENILDLWNQALAQIEKKLSKPSFETWMKSTKAHSLQGDTLTITAPNEFARDWLESRYLHLIADTIYELTGEELSIKFVIPQNQDVEDFMPKPQVKKAVKEDTSDFPQNMLNPKYTFDTFVIGSGNRFAHAASLAVAEAPAKAYNPLFIYGGVGLGKTHLMHAIGHYVIDHNPSAKVVYLSSEKFTNEFICSIRDNKCVDFRNRYRNVDVLLIDDIQFLAGKEQTQEEFFHTFNTLHEESKQIVISSDRPPKEIPTLEDRLRSRFEWGLITDITPPDLETRIAILRKKAKAEGLDIPNEVMLYIANQIDSNIRELEGALIRVVAYSSLINKDINADLAAEALKDIIPSSKPKVITIKEIQRVVGQQFNIKLEDFKAKKRTKSVAFPRQIAMYLSREMTDSSLPKIGEEFGGRDHTTVIHAHEKISKLLADDEQLQQHVKEIKEQLK
notes: DnaA, Bacillus subtilis, double cysteine mutant N191C/A198C; also called DnaA(N191C/A198C) mutant protein
B4: DnaA(A198C), labelled with Cy3B or Atto647N (natural protein, Bacillus subtilis, UniProt P05648 1-446, looked up)
chain: B3 chain with C191N
modifications: Cy3B-maleimide or Atto647N-maleimide on the single cysteine A198C (mixed 1:1:2 Cy3B-labelled: Atto647N labelled: un-labelled)
notes: DnaA, Bacillus subtilis, single cysteine mutant A198C; Printed once as DnaA^N198C and once as DnaA^A19C in the methods (misprints)
B5: DnaA domain I (residues 1–81) of Bacillus subtilis DnaA (domain or fragment, UniProt P05648 1-81, looked up)
chain: MENILDLWNQALAQIEKKLSKPSFETWMKSTKAHSLQGDTLTITAPNEFARDWLESRYLHLIADTIYELTGEELSIKFVIP
notes: DnaA, Bacillus subtilis, domain I, residues 1-81; After thrombin cleavage a residual N-terminal Gly-Ser-His leader remains; 15N-labelled (or 13C/15N) where it is the observed partner in NMR, unlabelled in the reverse titration; also called N-terminal domain I of DnaA; DnaA NTD; not shown: His tag, N-terminal, cleaved
B6: DnaD196, truncated DnaD lacking the C-terminal residues 197–232 (domain or fragment)
chain: MKKQQFIDMQEQGTSTIPNLLLTHYKQLGLNETELILLLKIKMHLEKGSYFPTPNQLQEGMSISVEECTNRLRMFIQKGFLFIEECEDQNGIKFEKYSLQPLWGKLYEYIQLAQNQTQERKAEGEQKSLYTIFEEEFARPLSPLECETLAIWQDQDQHDAQLIKHALKEAVLSGKLSFRYIDRILFEWKKNGLKTV

Data set [1] addresses DnaA(N191C), labelled with Cy3B or Atto647N (Bacillus subtilis) (UniProt P05648).
Data set [2] addresses B5. The data set is described as follows: NMR titration; 1H-15N HSQC, chemical shift perturbations; unlabelled DnaD DDBH2 (129-232 or 129-196) titrated into 15N-labelled DnaA domain I (100 μM) up to 8:1 excess; 50 mM potassium phosphate pH 7.4, 100 mM NaCl; 25°C; KD averaged over five residues. The following applies: both partners purified.
Data set [3] deals with the molecule itself. The data set is described as follows: cross-linking; BMOE (2 mM) cross-linking of 1.5 μM DnaA(N191C/A198C) with 3 nM 819 bp DNA, 2 mM ATP, 37°C; SDS-PAGE, Coomassie.
Data set [4] concerns the molecule itself. The data set is described as follows: FRET or BRET; single-molecule FRET, confocal, room temperature; 1.5 μM DnaA (1:1:2 Cy3B-labelled: Atto647N labelled: un-labelled) with 3 nM 819 bp oriC DNA fragment and 2 mM ATP, 37°C 15 min; measured at ∼100 pM DnaA in imaging buffer. (In BRET a luciferase serves as donor, and the signal depends on an acceptor being close.)

For data set [5], the target named is T1, DnaD DDBH2 domain (residues 129–232) of …. The data set is described as follows: NMR titration; reverse titration: unlabelled DnaA domain I titrated into 15N-labelled DnaD DDBH2 (100 μM) up to 8:1 excess; 50 mM potassium phosphate pH 7.4, 100 mM NaCl; 25°C; KD averaged over five residues. The following applies: both partners purified.
Data set [6] has the same target. The data set can be described thus: NMR titration; 1H-15N HSQC, chemical shift perturbations; unlabelled DnaD DDBH2 (129-232 or 129-196) titrated into 15N-labelled DnaA domain I (100 μM) up to 8:1 excess; 50 mM potassium phosphate pH 7.4, 100 mM NaCl; 25°C; KD averaged over five residues. The following applies: both partners purified.
The target in data set [7] is DnaA(N191C), labelled with Cy3B or Atto647N (Bacillus subtilis) (UniProt P05648). The source holds these as a separate data set.

Positions count from the first letter of the chain named. In names and notes the source's numbering stands.

B1: in data set [1], the single-molecule FRET of Cy3B/Atto647N-labelled DnaA–DNA filaments: apparent FRET efficiency E* with DnaD (24 μM) added before or after DnaA; E* ∼0.7 without DnaD was 0.5.

As for B2, the binding result in data set [2] was “binds”.

In the case of B3, in data set [3], the binding result was “binds”.

As to B4, the binding result in data set [4] is listed as “binds”.

As to B5, the Kd in data set [5] is 665 ± 251 µM; in data set [6] it was 768 ± 168 µM.

Consider B6, for which the single-molecule FRET of labelled DnaA–DNA filaments: apparent FRET efficiency E* with DnaD196 (24 μM); E* ∼0.7 in its absence in data set [7] was found to be 0.5.

In general, Kd refers to the concentration at which binding is half-saturated.

Source of the values: paper PMC6393240, “DNA replication initiation in Bacillus subtilis: structural and functional characterization of the essential DnaA–DnaD interaction” (Nucleic Acids Research, 2018).
